Measured values from article PMC8134462, “Cross-reactive serum and memory B-cell responses to spike protein in SARS-CoV-2 and endemic coronavirus infection” (Nature Communications, 2021).

Target: T1, SARS-CoV-2 soluble S ectodomain protein (residue 1-1208), prefusion-stabilized, with T4 fibritin … (SARS-CoV-2, Wuhan-Hu-1 (MN908947), UniProt P0DTC2, K986/V987 replaced by proline residues)
T1 construct: also called SARS-CoV-2 S-protein; whole S protein
Test: BLI
Conditions: both partners purified

Binder | binding result
mAb CC9.2 (IgG) (antibody, V domains shown) VH: EVQLVESGGGLVQPGRSLRLSCVAPGFTLGGYGMHWVRQAPGKGLEWVGLISYDGSVQKYGSSVKGRFTISKDNSKNTLYLEMNSLRADDTAVYFCVKGASLGDNWGQGTLVTVSS VL: EIVMTQSPLSLPVTLGQPASISCRSSQSLVYSDGDTYMSWFHQRPGQSPRRLIYKVSNRDFGVPDRFSGSGSGTDFTLKISRVEAEDVGVYYCMQGTHWPYTFGPGTKVEIK | binds
mAb CC9.1 (antibody, V domains shown) VH: EVQLVESGGGLVQPGRSLRLSCVAPGFTLGGYGMHWVRQAPGKGLEWVGLISYDGSVQKYGSSVKGRFTISKDNSKNTLYLEMNSLRADDTAVYFCVKGASLGDNWGQGTLVTVSS VL: EIVMTQSPLSLPVTLGQPASISCRSSQSLVYSDGDTYMSWFHQRPGQSPRRLIYKVSNRDSGVPDRFSGSGSGTDFTLKISRVEAEDVGVYYCMQGTHWPYTFGPGTKVEIK | binds
second SARS-CoV-2/HCoV-HKU1 cross-reactive mAb from the CC40 donor (its name is not printed in the text) (antibody, V domains shown, also called one of the two cross-reactive mAbs from the CC40 donor) VH: EVQLVESGGGVVQPGRSLRLSCVASGFTFSNYGMHWVRQAPGKGLEWVAVMSYDGSVTYYGDSVRGRFTISRDNSKNTLYLQMSSLRTDDTGVYYCAKGQPLDDIWGLGTLVTVSS VL: EIVMTQSPLSLPVSLGQSASISCRSSQSLVHTDGITYLSWFQQRPGQSPRRLLYKVSNRDSGVPDRFSGSGSGTDFTLKISRVEAEDVGVYYCLQGTYWPWTFGQGTKVEIK | binds
